B1: mRNA-splicing (parent)
chain: AGUUGCUGCUGGGAGCUCCAGCACAGUGAAAUGGACAGAAGGGCAGAGCAA

Variants of: B1
Assay: exon inclusion enrichment index; higher = more inclusion; WT1 exon 5 minigene, HEK293

Compared with C6A U7C C9A U10C A14G, G5A C6U U7A G8U C9A A23G is lower in “exon inclusion enrichment index” value: 4.78 for the first, 0.157 for the second.

Compared with C6A U7A C9A U10A U27A, C6A U7A C9A U10A U27G is lower in “exon inclusion enrichment index” value: 0.945 for the first, 0.189 for the second.

Compared with A29C A30C, G43C C44U is lower in “exon inclusion enrichment index” value: 0.418 for the first, 0.086 for the second.

Compared with G5U G8C C9A, G5C C6U G8U U10C is higher in “exon inclusion enrichment index” value: 0.689 for the first, 1.11 for the second.

Compared with U7A G8U C9A, G5C C6A U7C G8A U10A A23C C24U is lower in “exon inclusion enrichment index” value: 0.565 for the first, 0.0196 for the second.

Compared with G5U G8U C9U A31U U32A, G5U G8U C9U A31U U32G is higher in “exon inclusion enrichment index” value: 0.00567 for the first, 0.0359 for the second.

First: A25G G26C
Second: C6A U7C C9A U10C A30G A31G
The “exon inclusion enrichment index” value of the first is lower: 0.272 for the first, 1.7 for the second.

First: C6A U7A C9A U10A A37G G38U
Second: G5A U7C G8A U10C C24G A25U
The “exon inclusion enrichment index” value of the first is lower: 0.29 for the first, 2.8 for the second.

First: G5A C6U U7A G8U C9A G15U C16A
Second: U3A U4A G5C C6G U7C U10C
The “exon inclusion enrichment index” value of the first is lower: 0.0179 for the first, 3.05 for the second.

Compared with C6A U7A C9A U10A G46A A47C, C6U C9A U10C is lower in “exon inclusion enrichment index” value: 1.64 for the first, 1.46 for the second.

Compared with C6A U7C C9A U10C G43A C44G, G5A C6G U7G C9A G43A C44G is lower in “exon inclusion enrichment index” value: 5.09 for the first, 0.0259 for the second.

Compared with G5C C6A U7C G8A U10A A29G A30G, G5C C6G U7C is higher in “exon inclusion enrichment index” value: 0.0879 for the first, 0.636 for the second.

Compared with G5A C6G U7G C9A G12A G13A, G5A C6U U7A G8U C9A G34A A35G is higher in “exon inclusion enrichment index” value: 0.00149 for the first, 0.00212 for the second.

Going from G5A C6A U7C G8A U10A to G11U G12A, the “exon inclusion enrichment index” value rises from 0.063 to 0.315.

First: G5C C6U G8C C9U U10C A47G G48U
Second: G5A U7C G8A U10C G12C
The “exon inclusion enrichment index” value of the first is lower: 0.205 for the first, 1.57 for the second.

Compared with G5A C6U U7A G8U C9A A35U C36G, G5A C6U U7A G8U C9A C18U C19U is lower in “exon inclusion enrichment index” value: 0.00319 for the first, 0.00085 for the second.

First: C6A U7A C9A U10A G12A G13C
Second: G5C C6G U7C U10C C19U
The “exon inclusion enrichment index” value of the first is higher: 1.94 for the first, 0.492 for the second.

Compared with G2A U3C G5A C6U U7A G8U C9A, G5A C6U U7A G8U C9A C19U A20U is lower in “exon inclusion enrichment index” value: 0.0801 for the first, 0.00982 for the second.

First: G5A C6U U7A G8U C9A G38U
Second: G5C C6A U7C G8A U10A G43C C44U
The “exon inclusion enrichment index” value of the first is lower: 0.0207 for the first, 0.0879 for the second.

First: G5C C6A U7C G8A U10A G43C C44A
Second: U4A C6U U7A G8U C9A
The “exon inclusion enrichment index” value of the first is higher: 0.602 for the first, 0.00525 for the second.

Compared with G5A U7C G8A C9G U10G, C6A U7A C9A U10A G46U A47U is higher in “exon inclusion enrichment index” value: 0.236 for the first, 1.03 for the second.

Compared with G5U G8U C9U G34A A35G, G5A C6G U7G C9A G42A G43A is higher in “exon inclusion enrichment index” value: 0.0238 for the first, 0.0419 for the second.

Compared with G5A C6G U7G C9A G42A G43U, C6A U7A C9A U10A G12A is higher in “exon inclusion enrichment index” value: 0.0457 for the first, 1.32 for the second.

Compared with U4A G5C C6G U7C U10C, C6A U7A C9A U10A U32A G33C is lower in “exon inclusion enrichment index” value: 2.75 for the first, 0.991 for the second.

Going from G5C C6G U7C U10C C16G U17G to G41A G42A, the “exon inclusion enrichment index” value falls from 1.27 to 0.141.

Compared with G5A C6G U7G C9A C16A U17G, G5C C6A U7C G8A U10A A20C G21A is higher in “exon inclusion enrichment index” value: 0.00129 for the first, 0.0158 for the second.

Compared with G5A C6U U7A G8U C9A A30G A31G, C6A U7A C9A U10A A23G C24G is higher in “exon inclusion enrichment index” value: 0.00768 for the first, 1.58 for the second.

First: G5A C6U U7A G8U C9A G34U A35C
Second: U4C G5C C6U G8C C9U U10C
The “exon inclusion enrichment index” value of the first is lower: 0.0139 for the first, 2.17 for the second.

Compared with U3C U4G G5C C6G U7C U10C, U4G G5U C6U U7A G8U C9A is lower in “exon inclusion enrichment index” value: 1.31 for the first, 0.0955 for the second.

First: G5A C6U U7A G8U C9A C36G
Second: G5C C6G U7C U10C C19A A20C
The “exon inclusion enrichment index” value of the first is lower: 0.0434 for the first, 2.85 for the second.

Compared with C18A C19U, C18A C19G is higher in “exon inclusion enrichment index” value: 0.121 for the first, 0.352 for the second.

Going from C6A U7A C9A U10A G12U G13U to C6A U7C C9A U10C A25U G26U, the “exon inclusion enrichment index” value rises from 0.144 to 2.49.

Compared with G5A C6U U7A G8U C9A A35C C36G, G5U G8U C9A is higher in “exon inclusion enrichment index” value: 0.0383 for the first, 0.194 for the second.

First: U27C G28C
Second: G5A U7C G8A U10C A29U
The “exon inclusion enrichment index” value of the first is lower: 0.105 for the first, 0.801 for the second.

First: G5C C6G U7C U10C A45G G46U
Second: G5C C6A U7C G8A C9A U10A
The “exon inclusion enrichment index” value of the first is higher: 3.14 for the first, 0.239 for the second.

Compared with G5A U7C G8A U10C C24U A25G, C6A U7A C9A U10A G13C A14U is lower in “exon inclusion enrichment index” value: 3.39 for the first, 1.56 for the second.

First: G5A C6G U7G C9A G26A U27G
Second: G5A C6G U7G C9A G26A U27C
The “exon inclusion enrichment index” value of the first is lower: 0.00208 for the first, 0.0139 for the second.

Compared with G2C U3C G5C C6G U7C U10C, G5C C6A U7C G8A U10A G13A A14G is lower in “exon inclusion enrichment index” value: 3.45 for the first, 0.424 for the second.

Compared with G2A U3A G5C C6G U7C U10C, G5C C6G U7C U10C A37C G38U is lower in “exon inclusion enrichment index” value: 3.39 for the first, 2.1 for the second.

Going from G28A A29C to G5A C6G U7G C9A C19A A20U, the “exon inclusion enrichment index” value falls from 0.0703 to 0.00128.

First: G5A C6U U7A G8U C9A A47G G48A
Second: G5C C6U G8C C9U U10C G12U G13C
The “exon inclusion enrichment index” value of the first is lower: 0.0214 for the first, 0.698 for the second.

For G2A G5U G8U C9U, the “exon inclusion enrichment index” value was 0.53.
